Literature values as cited in article PMC6728138.

Tests used:
AKAP79 (Homo sapiens) = AKAP79 (Homo sapiens) (UniProt P24588)
[1] = target: PVIVIT peptide (synthetic construct)

Chain of AKAP79 (Homo sapiens) (P24588 whole entry): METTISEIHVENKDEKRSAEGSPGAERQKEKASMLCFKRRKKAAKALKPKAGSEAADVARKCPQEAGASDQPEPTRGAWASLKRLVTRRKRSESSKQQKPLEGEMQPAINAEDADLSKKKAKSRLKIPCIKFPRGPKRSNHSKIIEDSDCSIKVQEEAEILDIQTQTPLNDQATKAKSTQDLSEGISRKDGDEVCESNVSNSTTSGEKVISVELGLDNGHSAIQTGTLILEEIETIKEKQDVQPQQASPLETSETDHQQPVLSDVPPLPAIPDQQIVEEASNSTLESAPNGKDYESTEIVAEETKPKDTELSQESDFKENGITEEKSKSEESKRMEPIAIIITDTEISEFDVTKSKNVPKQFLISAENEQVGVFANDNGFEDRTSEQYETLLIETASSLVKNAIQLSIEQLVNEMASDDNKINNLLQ

Calcineurin (from UniProt Q08209)
Kd (AKAP79 (Homo sapiens)): 0.5 µM | Kd [1]: 0.5 µM
